The record followed here is publication PMC6598307, “Directed evolution of a genetically encoded immobilized lipase for the efficient production of biodiesel from waste cooking oil” (Biotechnology for Biofuels, 2019).

Substrate in the data set: CCCCCCCCCCCCCCCC(=O)Oc1ccc([N+](=O)[O-])cc1
Briefly: purified protein. The data set is classed as biochemical, Proteus mirabilis. Conditions: soluble free enzyme, 0.1 M NaH2PO4 pH 7.0, 25 °C, 1 nM enzyme, pNPP 0-2.25 mM, pNPP stock in MeCN:Triton X-100 1:1.

B1: Proteus mirabilis lipase (PML), soluble (Proteus mirabilis HI4320) (protein)
chain: MSTKYPIVLVHGLAGFNEIVGFPYFYGIADALRQDGHQVFTASLSAFNSNEVRGKQLWQFVQTLLQETQAKKVNFIGHSQGPLACRYVAANYPDSVASVTSINGVNHGSEIADLYRRIMRKDSIPEYIVEKVLNAFGTIISTFSGHRGDPQDAIAALESLTTEQVTEFNNKYPQALPKTPGGEGDEIVNGVHYYCFGSYIQGLIAGEKGNLLDPTHAAMRVLNTFFTEKQNDGLVGRSSMRLGKLIKDDYAQDHIDMVNQVAGLVGYNEDIVAIYTQHAKYLASKQL
notes: full-length PML gene in pET28b (NdeI/XhoI), N-terminal His-tag; no signal peptide needed; E. coli BL21(DE3)
On to B1, for which the Km was found to be 1770 ± 330 µM, the kcat is 112 ± 12 s⁻¹ and the kcat/Km was 63200 ± 210 M⁻¹ s⁻¹.
